Experimental data as given in paper PMC5506079, “Neodymium-140 DOTA-LM3: Evaluation of an In Vivo Generator for PET with a Non-Internalizing Vector” (Frontiers in Medicine, 2017).

Columns and labels:
[1] = test system: NCI-H727 tumor bearing mice; assay: Conventional ex vivo biodistribution (gamma counter); format: in vivo, female NMRI nude mice; conditions: for Tumor ex-vivo well counter: 16 h after injection
Procedure: (§1) NCI-H727 lung carcinoid cancer cells (ATCC CRL-5815, LGC Standards) were cultured in RPMI-1640 media supplemented with 10% fetal bovine serum and 1% penicillin-streptomycin (Invitrogen) at 37° C and 5% CO2. Cells in their exponential growth phase and at 80–90% confluence were harvested by trypsinization and resuspended in 1:1 media and matrigel (BD Biosciences) at 5 × 10^7 cells/mL. Subcutaneous tumors were established in female NMRI nude mice (Taconic, Denmark) by inoculation of 5 × 10^6 cells in 100 µL on each flank above the hind limbs in the subcutaneous space. All animal experiments were performed under a protocol approved by the National Animal Experiments Inspectorate of Denmark.
Conventional ex vivo biodistribution was performed after the post-mortem scan. Tumors and organs were resected, weighted and the radioactivity was counted in a gamma counter (Wizard^2, PerkinElmer).

[2] = HPLC verification of de-labeling of ^140Pr from DOTA-LM3; format: physicochemical; conditions: reverse-phase C-18 radio-HPLC trace vs LSC of fractions
Procedure: Samples of ^140Nd-DOTA-LM3 were injected onto a reverse-phase C-18 (Luna 3uC18(2)(n) 100 A 100 × 2 mm 3 μm, Phenomenex) column at a flow rate of 0.5 mL/min starting from 0% acetonitrile in water, and reaching 100% over a 15 min gradient. Elution was monitored with a radio detector. The entire effluent was collected in 1 min intervals (500 µL each) and quantified 4 days after collection by liquid scintillation counting on a HIDEX 300 SL spectrometer.

[3] = test system: NCI-H727 tumor bearing mice; assay: Small animal PET/CT tissue quantification, pre-mortem (16 h) and post-mortem; format: in vivo, female NMRI nude mice; conditions: for Tumor post-mortem PET signal: mean ± spread over tumors; for Tumor partial volume corrected PET signal (PVC-PET): post-mortem PET divided by S(V); for Kidney PM PET tissue signal / L. tumor PM PET tissue signal / Liver PM PET tissue signal / Lung PM PET tissue signal / Muscle PM PET tissue signal / Pancreas PM PET tissue signal / R. tumor PM PET tissue signal: post mortem scan after 16 h, 3.3–4.3 MBq i.v.
Procedure: as §1
Longitudinal small animal PET/CT imaging (Inveon Multimodality PET/CT scanner, Siemens) was performed with NCI-H727 tumor bearing mice injected intravenously with 3.3–4.3 MBq ^140Nd-DOTA-LM3 (n = 8) or 2.7–3.1 MBq ^140Nd-chloride (n = 3) in 150 µL. Mice were anesthetized with sevoflurane (Abbott Laboratories) during injection and PET/CT imaging. PET data was acquired for 600 s in list mode at 1, 3, and 16 h after injection. The mice were sacrificed after the 16 h time-point and a PET acquisition was performed 2 h post-mortem. Images were reconstructed using a 3D maximum a posteriori algorithm with CT based attenuation correction. CT images were acquired with the following settings: 300 projections, 65 kV, 500 µA, and 400 ms exposure, and reconstructed with an isotropic voxel size of 105 µm. Image analysis was performed using the Inveon Software (Siemens). Region of interests (ROIs) were drawn manually over the tumor regions and other organs based on the CT images and the uptake of ^140Nd-DOTA-LM3 or ^140Nd-chloride quantified as % injected dose per gram tissue (%ID/g).
Throughout the text we have used a unit, %IS/g, to denote the “percent of injected annihilation signal per gram tissue”. This is in contrast to the common unit, %ID/g (percent of injected dose per gram), which is typically used to report relative radiotracer concentrations. We made the decision to change units for two reasons: first because the EC-delayed positron is not guaranteed to be emitted at the same location as the initial EC decay; and second, because the abnormally high energy of positrons emitted in the decay of ^140Pr leads to large partial volume effects which alter the relationship between the decay distribution and the annihilation distribution.
Using the partial volume correction factor S(V), as a function of ROI volume, the PET quantifications from the manuscript can be rescaled. The results are shown in table S1 compared to the ex vivo biodistribution data. […] A more complete approach to the partial volume correction may lead to better agreement for the PET and well-counter data.

In the case of “1,4,7,10- tetraazacyclododecane, 1,4,7- tri acetic acid, 10- acetamide N - p-Cl-Phecyclo(d-Cys-Tyr-d-4-amino-Phe(carbamoyl)-Lys-Thr-Cys)d-Tyr-NH2 (disulfide) [^140Nd-DOTA-LM3, ^140Nd reacted with the somatostatin analogue DOTA-LM3, a non-internalizing vector; the printed name is that of unlabeled DOTA-LM3]”, the “Tumor ex-vivo well counter” value ([1]; 2.5MBq/nmol) is reported as 3.7 ±1.3 %ID/g, the “Tumor ex-vivo well counter” value ([1]; 5MBq/nmol) is reported as 6.3 ±2.3 %ID/g and the “Liver tissue accumulation, ex vivo biodistribution” value ([1]; 16 h after i.v. injection, gamma counter) is reported as 3 %ID/g. The “Pancreas tissue accumulation, ex vivo biodistribution” value ([1]; 16 h after i.v. injection, high specific activity (5.0 MBq/nmol, 0.5 nmol injected), n = 4, gamma counter) was 13 % ID/g, the “Efficiency of release of ^140Pr from DOTA-LM3 after ^140Nd decay” value [2] was greater than 95% and the “Tumor post-mortem PET signal” value ([3]; 2.5MBq/nmol) was 0.19 ±0.07 %IS/g. For the same substance, the “Tumor partial volume corrected PET signal (PVC-PET)” value ([3]; 2.5MBq/nmol) was 1.5 ±0.4 %ID/g, the “Tumor post-mortem PET signal” value ([3]; 5MBq/nmol) was 0.40 ±0.15 %IS/g and the “Tumor partial volume corrected PET signal (PVC-PET)” value ([3]; 5MBq/nmol) was 3.0 ±1.0 %ID/g. For the same substance, the “Fraction of in situ produced ^140Pr washed out of the pancreas before decay” value ([3]; higher specific activity (5 MBq/nmol), pre- vs post-mortem PET at 16 h, n = 4, mean ± SD) was 56 ± 7%, the “Kidney PM PET tissue signal” value ([3]; subject 1, 5 MBq/nmol) was 1.41 %IS/g and the “L. tumor PM PET tissue signal” value ([3]; subject 1, 5 MBq/nmol) was 0.38 %IS/g. For the same substance, the “Liver PM PET tissue signal” value ([3]; subject 1, 5 MBq/nmol) was 0.21 %IS/g, the “Lung PM PET tissue signal” value ([3]; subject 1, 5 MBq/nmol) was 0.06 %IS/g and the “Muscle PM PET tissue signal” value ([3]; subject 1, 5 MBq/nmol) was 0.08 %IS/g. For the same substance, the “Pancreas PM PET tissue signal” value ([3]; subject 1, 5 MBq/nmol) was 1.79 %IS/g, the “R. tumor PM PET tissue signal” value ([3]; subject 1, 5 MBq/nmol) was 0.29 %IS/g and the “Kidney PM PET tissue signal” value ([3]; subject 2, 5 MBq/nmol) was 1.26 %IS/g. For the same substance, the “L. tumor PM PET tissue signal” value ([3]; subject 2, 5 MBq/nmol) was 0.35 %IS/g, the “Liver PM PET tissue signal” value ([3]; subject 2, 5 MBq/nmol) was 0.17 %IS/g and the “Lung PM PET tissue signal” value ([3]; subject 2, 5 MBq/nmol) was 0.08 %IS/g. For the same substance, the “Muscle PM PET tissue signal” value ([3]; subject 2, 5 MBq/nmol) was 0.07 %IS/g, the “Pancreas PM PET tissue signal” value ([3]; subject 2, 5 MBq/nmol) was 2.12 %IS/g and the “R. tumor PM PET tissue signal” value ([3]; subject 2, 5 MBq/nmol) was 0.41 %IS/g. For the same substance, the “Kidney PM PET tissue signal” value ([3]; subject 3, 5 MBq/nmol) was 1.76 %IS/g, the “L. tumor PM PET tissue signal” value ([3]; subject 3, 5 MBq/nmol) was 0.68 %IS/g and the “Liver PM PET tissue signal” value ([3]; subject 3, 5 MBq/nmol) was 0.25 %IS/g. The “Lung PM PET tissue signal” value ([3]; subject 3, 5 MBq/nmol) was 0.08 %IS/g, the “Muscle PM PET tissue signal” value ([3]; subject 3, 5 MBq/nmol) was 0.06 %IS/g and the “Pancreas PM PET tissue signal” value ([3]; subject 3, 5 MBq/nmol) was 2.56 %IS/g. For the same substance, the “R. tumor PM PET tissue signal” value ([3]; subject 3, 5 MBq/nmol) was 0.44 %IS/g, the “Kidney PM PET tissue signal” value ([3]; subject 4, 5 MBq/nmol) was 1.15 %IS/g and the “L. tumor PM PET tissue signal” value ([3]; subject 4, 5 MBq/nmol) was 0.24 %IS/g. The “Liver PM PET tissue signal” value ([3]; subject 4, 5 MBq/nmol) was 0.12 %IS/g, the “Lung PM PET tissue signal” value ([3]; subject 4, 5 MBq/nmol) was 0.04 %IS/g and the “Muscle PM PET tissue signal” value ([3]; subject 4, 5 MBq/nmol) was 0.06 %IS/g. For the same substance, the “Pancreas PM PET tissue signal” value ([3]; subject 4, 5 MBq/nmol) was 2.26 %IS/g, the “R. tumor PM PET tissue signal” value ([3]; subject 4, 5 MBq/nmol) was 0.18 %IS/g and the “Kidney PM PET tissue signal” value ([3]; subject 5, 2.5 MBq/nmol) was 1.12 %IS/g. The “L. tumor PM PET tissue signal” value ([3]; subject 5, 2.5 MBq/nmol) was 0.29 %IS/g, the “Liver PM PET tissue signal” value ([3]; subject 5, 2.5 MBq/nmol) was 0.20 %IS/g and the “Muscle PM PET tissue signal” value ([3]; subject 5, 2.5 MBq/nmol) was 0.04 %IS/g. For the same substance, the “Pancreas PM PET tissue signal” value ([3]; subject 5, 2.5 MBq/nmol) was 0.76 %IS/g, the “R. tumor PM PET tissue signal” value ([3]; subject 5, 2.5 MBq/nmol) was 0.28 %IS/g and the “Kidney PM PET tissue signal” value ([3]; subject 6, 2.5 MBq/nmol) was 1.35 %IS/g. For the same substance, the “L. tumor PM PET tissue signal” value ([3]; subject 6, 2.5 MBq/nmol) was 0.17 %IS/g, the “Liver PM PET tissue signal” value ([3]; subject 6, 2.5 MBq/nmol) was 0.23 %IS/g and the “Lung PM PET tissue signal” value ([3]; subject 6, 2.5 MBq/nmol) was 0.08 %IS/g. For the same substance, the “Muscle PM PET tissue signal” value ([3]; subject 6, 2.5 MBq/nmol) was 0.03 %IS/g, the “Pancreas PM PET tissue signal” value ([3]; subject 6, 2.5 MBq/nmol) was 1.71 %IS/g and the “R. tumor PM PET tissue signal” value ([3]; subject 6, 2.5 MBq/nmol) was 0.07 %IS/g. The “Kidney PM PET tissue signal” value ([3]; subject 7, 2.5 MBq/nmol) was 0.97 %IS/g, the “L. tumor PM PET tissue signal” value ([3]; subject 7, 2.5 MBq/nmol) was 0.18 %IS/g and the “Liver PM PET tissue signal” value ([3]; subject 7, 2.5 MBq/nmol) was 0.17 %IS/g. The “Lung PM PET tissue signal” value ([3]; subject 7, 2.5 MBq/nmol) was 0.08 %IS/g, the “Muscle PM PET tissue signal” value ([3]; subject 7, 2.5 MBq/nmol) was 0.03 %IS/g and the “Pancreas PM PET tissue signal” value ([3]; subject 7, 2.5 MBq/nmol) was 0.88 %IS/g. The “R. tumor PM PET tissue signal” value ([3]; subject 7, 2.5 MBq/nmol) was 0.19 %IS/g, the “Kidney PM PET tissue signal” value ([3]; subject 8, 2.5 MBq/nmol) was 1.18 %IS/g and the “L. tumor PM PET tissue signal” value ([3]; subject 8, 2.5 MBq/nmol) was 0.18 %IS/g. For the same substance, the “Liver PM PET tissue signal” value ([3]; subject 8, 2.5 MBq/nmol) was 0.15 %IS/g, the “Lung PM PET tissue signal” value ([3]; subject 8, 2.5 MBq/nmol) was 0.04 %IS/g and the “Muscle PM PET tissue signal” value ([3]; subject 8, 2.5 MBq/nmol) was 0.03 %IS/g. The “Pancreas PM PET tissue signal” value ([3]; subject 8, 2.5 MBq/nmol) was 0.82 %IS/g and the “R. tumor PM PET tissue signal” value ([3]; subject 8, 2.5 MBq/nmol) was 0.18 %IS/g.
